In this test the target is human DCIR (dendritic cell immunoreceptor), full length, isotype 1 (human) (UniProt Q9UMR7). In words: cell-based or functional assay.
Chain of UniProt Q9UMR7 (Q9UMR7 whole entry): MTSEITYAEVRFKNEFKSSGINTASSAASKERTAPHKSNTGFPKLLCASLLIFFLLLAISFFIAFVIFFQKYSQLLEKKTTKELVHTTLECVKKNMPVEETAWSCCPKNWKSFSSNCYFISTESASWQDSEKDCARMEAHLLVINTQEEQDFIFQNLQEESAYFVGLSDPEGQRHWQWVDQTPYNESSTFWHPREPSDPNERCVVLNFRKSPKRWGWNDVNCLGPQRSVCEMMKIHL

Substance “HIV-1 NL4-3balenv virions (R5-tropic; NL4-3 with the env gene of HIV-1 Bal)” registered a reduction in virus transfer from IM-MDDC to CD4+ T cells after DCIR-specific siRNA, in absence of EFV of 30% and a reduction in virus transfer from IM-MDDC to CD4+ T cells after DCIR-specific siRNA, in cells treated with EFV of 40%.

Values taken from US20100061991A1.
